Biological target: PDGF-A (PDGF dimer composed of two A chains)

3T3 cell mitogenicity assay (tritiated thymidine incorporation) in the presence and absence of PDGF: > 2 fold
Substance: Platelet Derived Growth Factor-Associated Protein (PAP), rat, recombinant, expressed in bacteria

Reference: patent US5504197
